Results from the Immune Epitope Database (IEDB).

How the values were obtained:
[1] = biological target: HLA-B*53:01; test: IEDB peptide-MHC binding, purified MHC/competitive/radioactivity; filed as Kd, often an IC50 or EC50 that approximates it; ≥ and ≤ were set here for values at or beyond the usual limits of such assays; conditions: source organism: Dengue virus 3 Martinique/1243/1999
[2] = biological target: HLA-B*35:01; test: as above; conditions: source organism: Dengue virus 3 Martinique/1243/1999
[3] = biological target: HLA-B*51:01; test: as above; conditions: source organism: Dengue virus 3 Martinique/1243/1999
[4] = biological target: HLA-B*44:03; test: as above
[5] = biological target: HLA-B*40:01; test: as above
[6] = biological target: HLA-B*44:02; test: as above
[7] = biological target: HLA-B*18:01; test: as above
[8] = biological target: HLA-B*45:01; test: as above
[9] = biological target: HLA-B*40:02; test: as above
[10] = biological target: HLA-A*24:03; test: IEDB peptide-MHC binding, purified MHC/direct/fluorescence; filed as Kd, often an IC50 or EC50 that approximates it; ≥ and ≤ were set here for values at or beyond the usual limits of such assays; conditions: source organism: Mammarenavirus juninense
[11] = biological target: HLA-A*02:01; test: IEDB peptide-MHC binding, purified MHC/competitive/radioactivity; filed as Kd, often an IC50 or EC50 that approximates it; ≥ and ≤ were set here for values at or beyond the usual limits of such assays; conditions: source organism: Triticum aestivum
[12] = biological target: HLA-A*69:01; test: IEDB peptide-MHC binding, purified MHC/competitive/fluorescence; filed as Kd, often an IC50 or EC50 that approximates it; ≥ and ≤ were set here for values at or beyond the usual limits of such assays; conditions: source organism: dengue virus type 2
[13] = biological target: HLA-A*02:06; test: IEDB peptide-MHC binding, purified MHC/competitive/radioactivity; filed as Kd, often an IC50 or EC50 that approximates it; ≥ and ≤ were set here for values at or beyond the usual limits of such assays; conditions: source organism: Dengue virus 2 Jamaica/1409/1983
[14] = source organism: SARS coronavirus Tor2
[15] = source organism: Lymphocytic choriomeningitis virus (strain Traub)
[16] = source organism: Mammarenavirus choriomeningitidis

Sequence | Kd [4, 14] | Kd [5, 14] | Kd [6, 14] | Kd [7, 14] | Kd [8, 14] | Kd [9, 14] | other results
FPQSNAPIQD | – | – | – | – | – | – | Kd [1]: 1940 nM; Kd [2]: 1110 nM; Kd [3]: ≥ 69600 nM
FELLNAPAT | 6130 nM | 1170 nM | 5790 nM | 303 nM | 392 nM | 11.1 nM | –
SFMQEIPTF | – | – | – | – | – | – | Kd [10]: 0.3 nM
QLIPCMDVVL | – | – | – | – | – | – | Kd [11]: 384 nM
AEVQIDRLIT | 90.5 nM | 1240 nM | 1660 nM | ≥ 25900 nM | 157 nM | 58.7 nM | –
EEKGISGTS | – | – | – | – | – | – | Kd [4, 15]: ≥ 78100 nM; Kd [5, 15]: ≥ 53800 nM; Kd [6, 15]: ≥ 34100 nM; Kd [7, 15]: ≥ 77500 nM; Kd [8, 15]: 2220 nM; Kd [9, 15]: ≥ 45400 nM
AELLPDTTY | – | – | – | – | – | – | Kd [4, 16]: 520 nM; Kd [5, 16]: ≥ 43300 nM; Kd [6, 16]: 353 nM; Kd [7, 16]: 1160 nM; Kd [8, 16]: 7850 nM; Kd [9, 16]: ≥ 40400 nM
DESASKSASV | 887 nM | 10200 nM | 1970 nM | 3780 nM | 2780 nM | 1210 nM | –
LVAGGLLTV | – | – | – | – | – | – | Kd [12]: ≥ 20000 nM; Kd [13]: 3.95 nM
MEAQFLYLYA | 8.16 nM | 1430 nM | 56.3 nM | 351 nM | 4.51 nM | 68.7 nM | –
